The values below come from US20250218531A1 (ABSCI, published 2025).

“And” between values parts separate entries of the source, which are not always exact repeats. Identical values can stand only once.

For the assay, the target named is T1, HER2 (human epidermal growth factor receptor 2) (human, UniProt P04626 23-629).
T1 construct: also called Antigen: HER2
Nature of the assay: SPR.

B1: Trastuzumab HCDR3 variant ARYGLYYYYFDY (Fab, V domains shown)
VH: EVQLVESGGGLVQPGGSLRLSCAASGFNIKDTYIHWVRQAPGKGLEWVARIYPTNGYTRYADSVKGRFTISADTSKNTAYLQMNSLRAEDTAVYYCARYGLYYYYFDYWGQGTLVTVSS
VL: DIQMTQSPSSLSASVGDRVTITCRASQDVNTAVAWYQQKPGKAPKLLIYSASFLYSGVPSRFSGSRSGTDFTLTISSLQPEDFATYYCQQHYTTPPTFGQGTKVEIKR
B1: the Kd is 15.5 nM and the “log(KD (M))” value was -7.81.

B2: Trastuzumab HCDR3 variant ATWYGGNYHMYP (Fab, V domains shown)
VH: EVQLVESGGGLVQPGGSLRLSCAASGFNIKDTYIHWVRQAPGKGLEWVARIYPTNGYTRYADSVKGRFTISADTSKNTAYLQMNSLRAEDTAVYYCATWYGGNYHMYPWGQGTLVTVSS
VL: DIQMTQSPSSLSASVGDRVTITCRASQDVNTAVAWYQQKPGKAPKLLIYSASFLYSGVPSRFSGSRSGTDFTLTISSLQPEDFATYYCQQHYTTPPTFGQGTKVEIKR
Turning to B2, the Kd is 11.2 nM and the “log(KD (M))” value was -7.95.

B3: Trastuzumab HCDR3 variant ARYWMGVYEFDY (Fab, V domains shown)
VH: EVQLVESGGGLVQPGGSLRLSCAASGFNIKDTYIHWVRQAPGKGLEWVARIYPTNGYTRYADSVKGRFTISADTSKNTAYLQMNSLRAEDTAVYYCARYWMGVYEFDYWGQGTLVTVSS
VL: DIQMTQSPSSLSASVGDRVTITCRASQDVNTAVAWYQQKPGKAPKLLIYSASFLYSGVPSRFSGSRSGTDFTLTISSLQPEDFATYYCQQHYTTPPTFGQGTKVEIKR
Regarding B3, the Kd turned out to be 21.7 nM and the “log(KD (M))” value was -7.66.

B4: Trastuzumab HCDR3 variant ARYGTIYFHFDY (Fab, V domains shown)
VH: EVQLVESGGGLVQPGGSLRLSCAASGFNIKDTYIHWVRQAPGKGLEWVARIYPTNGYTRYADSVKGRFTISADTSKNTAYLQMNSLRAEDTAVYYCARYGTIYFHFDYWGQGTLVTVSS
VL: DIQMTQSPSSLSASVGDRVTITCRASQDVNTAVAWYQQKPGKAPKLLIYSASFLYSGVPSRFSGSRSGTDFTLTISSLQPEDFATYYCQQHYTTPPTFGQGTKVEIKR
For the molecule B4, the Kd was 23.9 nM and the “log(KD (M))” value is -7.62.

B5: Trastuzumab HCDR3 variant ARYGSYNYYFGD (Fab, V domains shown)
VH: EVQLVESGGGLVQPGGSLRLSCAASGFNIKDTYIHWVRQAPGKGLEWVARIYPTNGYTRYADSVKGRFTISADTSKNTAYLQMNSLRAEDTAVYYCARYGSYNYYFGDWGQGTLVTVSS
VL: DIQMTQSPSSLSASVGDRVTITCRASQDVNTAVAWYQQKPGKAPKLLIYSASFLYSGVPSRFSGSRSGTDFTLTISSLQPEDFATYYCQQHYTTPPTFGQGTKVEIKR
For the molecule B5, the Kd was 13.6 nM and the “log(KD (M))” value was -7.87.

B6: Trastuzumab HCDR3 variant ARYGYYGYYMDY (Fab, V domains shown)
VH: EVQLVESGGGLVQPGGSLRLSCAASGFNIKDTYIHWVRQAPGKGLEWVARIYPTNGYTRYADSVKGRFTISADTSKNTAYLQMNSLRAEDTAVYYCARYGYYGYYMDYWGQGTLVTVSS
VL: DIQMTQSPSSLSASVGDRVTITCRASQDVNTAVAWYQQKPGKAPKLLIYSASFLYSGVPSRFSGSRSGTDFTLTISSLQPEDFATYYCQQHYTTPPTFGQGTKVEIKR
As to B6, binding was put at a Kd of 23.3 nM and the “log(KD (M))” value was -7.63.

B7: Trastuzumab HCDR3 variant ARYGYYLYAMDY (Fab, V domains shown)
VH: EVQLVESGGGLVQPGGSLRLSCAASGFNIKDTYIHWVRQAPGKGLEWVARIYPTNGYTRYADSVKGRFTISADTSKNTAYLQMNSLRAEDTAVYYCARYGYYLYAMDYWGQGTLVTVSS
VL: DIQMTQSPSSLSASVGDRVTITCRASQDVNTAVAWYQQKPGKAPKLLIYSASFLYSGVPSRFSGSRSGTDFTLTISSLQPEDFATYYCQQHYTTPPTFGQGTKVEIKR
As for B7, binding was characterised by a dissociation constant (Kd) of 10.1 nM and the “log(KD (M))” value is -7.99.

B8: Trastuzumab HCDR3 variant ARYTFGAYYYSD (Fab, V domains shown)
VH: EVQLVESGGGLVQPGGSLRLSCAASGFNIKDTYIHWVRQAPGKGLEWVARIYPTNGYTRYADSVKGRFTISADTSKNTAYLQMNSLRAEDTAVYYCARYTFGAYYYSDWGQGTLVTVSS
VL: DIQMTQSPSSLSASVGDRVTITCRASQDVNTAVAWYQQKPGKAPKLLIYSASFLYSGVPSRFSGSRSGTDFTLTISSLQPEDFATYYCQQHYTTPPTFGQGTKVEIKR
For B8, binding was characterised by a dissociation constant (Kd) of 10.9 nM and the “log(KD (M))” value was -7.96.

B9: Trastuzumab HCDR3 variant ARYPPGYYIMDF (Fab, V domains shown)
VH: EVQLVESGGGLVQPGGSLRLSCAASGFNIKDTYIHWVRQAPGKGLEWVARIYPTNGYTRYADSVKGRFTISADTSKNTAYLQMNSLRAEDTAVYYCARYPPGYYIMDFWGQGTLVTVSS
VL: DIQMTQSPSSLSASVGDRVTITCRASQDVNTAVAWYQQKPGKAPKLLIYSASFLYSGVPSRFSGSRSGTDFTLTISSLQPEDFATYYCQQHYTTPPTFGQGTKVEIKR
For the molecule B9, the Kd is 23.5 nM and the “log(KD (M))” value was -7.63.

B10: Trastuzumab HCDR3 variant ARYRHWYYDYDY (Fab, V domains shown)
VH: EVQLVESGGGLVQPGGSLRLSCAASGFNIKDTYIHWVRQAPGKGLEWVARIYPTNGYTRYADSVKGRFTISADTSKNTAYLQMNSLRAEDTAVYYCARYRHWYYDYDYWGQGTLVTVSS
VL: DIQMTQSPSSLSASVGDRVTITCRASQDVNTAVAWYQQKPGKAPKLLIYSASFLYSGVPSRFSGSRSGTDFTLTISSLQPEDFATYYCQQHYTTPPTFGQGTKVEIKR
As for B10, the Kd was 6.15 nM and the “log(KD (M))” value was -8.21.

B11: Trastuzumab HCDR3 variant ARYGYGYYYMDY (Fab, V domains shown)
VH: EVQLVESGGGLVQPGGSLRLSCAASGFNIKDTYIHWVRQAPGKGLEWVARIYPTNGYTRYADSVKGRFTISADTSKNTAYLQMNSLRAEDTAVYYCARYGYGYYYMDYWGQGTLVTVSS
VL: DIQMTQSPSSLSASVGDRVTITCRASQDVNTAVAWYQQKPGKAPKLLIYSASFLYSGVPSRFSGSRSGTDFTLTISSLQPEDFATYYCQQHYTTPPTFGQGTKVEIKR
For the molecule B11, binding was put at a Kd of 12.2 nM and the “log(KD (M))” value was -7.91.

B12: Trastuzumab HCDR3 variant ARYYYYSYAMDY (Fab, V domains shown)
VH: EVQLVESGGGLVQPGGSLRLSCAASGFNIKDTYIHWVRQAPGKGLEWVARIYPTNGYTRYADSVKGRFTISADTSKNTAYLQMNSLRAEDTAVYYCARYYYYSYAMDYWGQGTLVTVSS
VL: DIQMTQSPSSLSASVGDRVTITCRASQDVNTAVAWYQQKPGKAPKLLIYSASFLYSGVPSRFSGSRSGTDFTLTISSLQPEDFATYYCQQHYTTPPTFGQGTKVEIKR
B12: the affinity, expressed as Kd, was 6.9 nM and the “log(KD (M))” value is -8.16.

B13: Trastuzumab HCDR3 variant ARYGYGYYVMDY (Fab, V domains shown)
VH: EVQLVESGGGLVQPGGSLRLSCAASGFNIKDTYIHWVRQAPGKGLEWVARIYPTNGYTRYADSVKGRFTISADTSKNTAYLQMNSLRAEDTAVYYCARYGYGYYVMDYWGQGTLVTVSS
VL: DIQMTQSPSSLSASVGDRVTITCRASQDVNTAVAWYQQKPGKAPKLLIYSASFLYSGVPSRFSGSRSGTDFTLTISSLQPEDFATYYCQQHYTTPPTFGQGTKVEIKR
Consider B13, for which the Kd turned out to be 8.65 nM and the “log(KD (M))” value is -8.06.

B14: Trastuzumab HCDR3 variant ARYGWGYYYFDY (Fab, V domains shown)
VH: EVQLVESGGGLVQPGGSLRLSCAASGFNIKDTYIHWVRQAPGKGLEWVARIYPTNGYTRYADSVKGRFTISADTSKNTAYLQMNSLRAEDTAVYYCARYGWGYYYFDYWGQGTLVTVSS
VL: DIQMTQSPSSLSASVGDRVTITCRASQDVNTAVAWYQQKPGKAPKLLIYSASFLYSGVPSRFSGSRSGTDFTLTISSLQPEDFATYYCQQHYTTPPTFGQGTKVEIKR
For B14, the Kd is 14.7 nM and the “log(KD (M))” value is -7.83.

B15: Trastuzumab HCDR3 variant ATWHYGGYFMSG (Fab, V domains shown)
VH: EVQLVESGGGLVQPGGSLRLSCAASGFNIKDTYIHWVRQAPGKGLEWVARIYPTNGYTRYADSVKGRFTISADTSKNTAYLQMNSLRAEDTAVYYCATWHYGGYFMSGWGQGTLVTVSS
VL: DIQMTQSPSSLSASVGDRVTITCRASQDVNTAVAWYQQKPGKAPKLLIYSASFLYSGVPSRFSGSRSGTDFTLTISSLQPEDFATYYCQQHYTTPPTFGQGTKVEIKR
In the case of B15, the Kd was 22.5 nM and 22.4 nM; the “log(KD (M))” value is -7.65.

B16: Trastuzumab HCDR3 variant ATYSFGAYYYVF (Fab, V domains shown)
VH: EVQLVESGGGLVQPGGSLRLSCAASGFNIKDTYIHWVRQAPGKGLEWVARIYPTNGYTRYADSVKGRFTISADTSKNTAYLQMNSLRAEDTAVYYCATYSFGAYYYVFWGQGTLVTVSS
VL: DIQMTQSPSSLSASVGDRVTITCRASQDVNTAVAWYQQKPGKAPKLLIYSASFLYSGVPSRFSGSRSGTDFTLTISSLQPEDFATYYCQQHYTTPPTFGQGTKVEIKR
For B16, the Kd turned out to be 4.73 nM and the “log(KD (M))” value was -8.33.

B17: Trastuzumab HCDR3 variant ATYGRDYYHFAS (Fab, V domains shown)
VH: EVQLVESGGGLVQPGGSLRLSCAASGFNIKDTYIHWVRQAPGKGLEWVARIYPTNGYTRYADSVKGRFTISADTSKNTAYLQMNSLRAEDTAVYYCATYGRDYYHFASWGQGTLVTVSS
VL: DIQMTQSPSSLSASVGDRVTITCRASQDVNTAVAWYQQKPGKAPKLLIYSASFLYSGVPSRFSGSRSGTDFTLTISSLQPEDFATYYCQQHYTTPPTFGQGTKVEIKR
Consider B17, for which the Kd amounted to 7.55 nM and the “log(KD (M))” value is -8.12.

B18: Trastuzumab HCDR3 variant ATYSPGAYYYGP (Fab, V domains shown)
VH: EVQLVESGGGLVQPGGSLRLSCAASGFNIKDTYIHWVRQAPGKGLEWVARIYPTNGYTRYADSVKGRFTISADTSKNTAYLQMNSLRAEDTAVYYCATYSPGAYYYGPWGQGTLVTVSS
VL: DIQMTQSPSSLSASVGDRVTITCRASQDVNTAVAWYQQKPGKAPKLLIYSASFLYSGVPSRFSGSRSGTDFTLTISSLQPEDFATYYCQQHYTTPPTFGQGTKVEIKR
B18: the Kd was 17.3 nM and 17.2 nM; the “log(KD (M))” value was -7.76.

B19: Trastuzumab HCDR3 variant ARYGSYFYYMDY (Fab, V domains shown)
VH: EVQLVESGGGLVQPGGSLRLSCAASGFNIKDTYIHWVRQAPGKGLEWVARIYPTNGYTRYADSVKGRFTISADTSKNTAYLQMNSLRAEDTAVYYCARYGSYFYYMDYWGQGTLVTVSS
VL: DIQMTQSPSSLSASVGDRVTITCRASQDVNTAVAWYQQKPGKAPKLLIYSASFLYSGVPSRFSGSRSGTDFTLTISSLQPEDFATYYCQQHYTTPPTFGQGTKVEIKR
Consider B19, for which binding was characterised by a dissociation constant (Kd) of 6.53 nM and the “log(KD (M))” value was -8.19.

B20: Trastuzumab HCDR3 variant ARYGYDGYYFAY (Fab, V domains shown)
VH: EVQLVESGGGLVQPGGSLRLSCAASGFNIKDTYIHWVRQAPGKGLEWVARIYPTNGYTRYADSVKGRFTISADTSKNTAYLQMNSLRAEDTAVYYCARYGYDGYYFAYWGQGTLVTVSS
VL: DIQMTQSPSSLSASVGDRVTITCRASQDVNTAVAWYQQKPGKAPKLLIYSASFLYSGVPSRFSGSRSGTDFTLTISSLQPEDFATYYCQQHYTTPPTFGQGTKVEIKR
As for B20, the affinity, expressed as Kd, was 22.2 nM and the “log(KD (M))” value is -7.65.

B21: Trastuzumab HCDR3 variant ARYYYGFYYFDY (Fab, V domains shown)
VH: EVQLVESGGGLVQPGGSLRLSCAASGFNIKDTYIHWVRQAPGKGLEWVARIYPTNGYTRYADSVKGRFTISADTSKNTAYLQMNSLRAEDTAVYYCARYYYGFYYFDYWGQGTLVTVSS
VL: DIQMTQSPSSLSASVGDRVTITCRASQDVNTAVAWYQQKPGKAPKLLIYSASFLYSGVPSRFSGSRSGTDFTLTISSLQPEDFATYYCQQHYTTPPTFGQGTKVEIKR
Consider B21, for which binding was put at a Kd of 1.21 nM and the “log(KD (M))” value is -8.92.

B22: Trastuzumab HCDR3 variant ARYGVVRYDFAY (Fab, V domains shown)
VH: EVQLVESGGGLVQPGGSLRLSCAASGFNIKDTYIHWVRQAPGKGLEWVARIYPTNGYTRYADSVKGRFTISADTSKNTAYLQMNSLRAEDTAVYYCARYGVVRYDFAYWGQGTLVTVSS
VL: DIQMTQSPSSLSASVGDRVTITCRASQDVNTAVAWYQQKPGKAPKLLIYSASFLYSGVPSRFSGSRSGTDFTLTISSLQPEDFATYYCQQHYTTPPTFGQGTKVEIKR
On to B22, for which the Kd came to 20.5 nM and the “log(KD (M))” value is -7.69.

B23: Trastuzumab HCDR3 variant ARYGRGYYYFDY (Fab, V domains shown)
VH: EVQLVESGGGLVQPGGSLRLSCAASGFNIKDTYIHWVRQAPGKGLEWVARIYPTNGYTRYADSVKGRFTISADTSKNTAYLQMNSLRAEDTAVYYCARYGRGYYYFDYWGQGTLVTVSS
VL: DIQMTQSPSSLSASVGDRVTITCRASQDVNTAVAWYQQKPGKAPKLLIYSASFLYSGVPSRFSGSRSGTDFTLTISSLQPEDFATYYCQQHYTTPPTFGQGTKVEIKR
Take B23: binding was put at a Kd of 26.8 nM and the “log(KD (M))” value is -7.57.

B24: Trastuzumab HCDR3 variant ARYGYGYFYMDY (Fab, V domains shown)
VH: EVQLVESGGGLVQPGGSLRLSCAASGFNIKDTYIHWVRQAPGKGLEWVARIYPTNGYTRYADSVKGRFTISADTSKNTAYLQMNSLRAEDTAVYYCARYGYGYFYMDYWGQGTLVTVSS
VL: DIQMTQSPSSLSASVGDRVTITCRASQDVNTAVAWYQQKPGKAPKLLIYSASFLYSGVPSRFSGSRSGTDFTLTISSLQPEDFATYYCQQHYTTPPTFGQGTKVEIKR
For B24, the Kd stood at 21.9 nM and the “log(KD (M))” value was -7.66.

B25: Trastuzumab HCDR3 variant ARYGTGNYAMDY (Fab, V domains shown)
VH: EVQLVESGGGLVQPGGSLRLSCAASGFNIKDTYIHWVRQAPGKGLEWVARIYPTNGYTRYADSVKGRFTISADTSKNTAYLQMNSLRAEDTAVYYCARYGTGNYAMDYWGQGTLVTVSS
VL: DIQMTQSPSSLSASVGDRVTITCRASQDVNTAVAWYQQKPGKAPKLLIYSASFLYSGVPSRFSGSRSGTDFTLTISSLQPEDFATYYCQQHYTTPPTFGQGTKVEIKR
As for B25, binding was characterised by a dissociation constant (Kd) of 26.3 nM and the “log(KD (M))” value is -7.58.

B26: Trastuzumab HCDR3 variant ARYGYYSYAMDY (Fab, V domains shown)
VH: EVQLVESGGGLVQPGGSLRLSCAASGFNIKDTYIHWVRQAPGKGLEWVARIYPTNGYTRYADSVKGRFTISADTSKNTAYLQMNSLRAEDTAVYYCARYGYYSYAMDYWGQGTLVTVSS
VL: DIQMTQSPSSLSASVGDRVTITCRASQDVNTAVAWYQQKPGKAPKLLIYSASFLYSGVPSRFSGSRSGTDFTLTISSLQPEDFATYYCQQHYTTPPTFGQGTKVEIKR
Consider B26, for which the Kd is 10.2 nM and the “log(KD (M))” value was -7.99.

B27: Trastuzumab HCDR3 variant ARYPGYYYYFDY (Fab, V domains shown)
VH: EVQLVESGGGLVQPGGSLRLSCAASGFNIKDTYIHWVRQAPGKGLEWVARIYPTNGYTRYADSVKGRFTISADTSKNTAYLQMNSLRAEDTAVYYCARYPGYYYYFDYWGQGTLVTVSS
VL: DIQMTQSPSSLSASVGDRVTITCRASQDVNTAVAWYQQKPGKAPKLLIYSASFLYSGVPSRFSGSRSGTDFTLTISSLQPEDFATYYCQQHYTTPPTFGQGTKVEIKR
Consider B27, for which the Kd stood at 17.9 nM and the “log(KD (M))” value was -7.75.

B28: Trastuzumab HCDR3 variant ATYGYGYYYFDY (Fab, V domains shown)
VH: EVQLVESGGGLVQPGGSLRLSCAASGFNIKDTYIHWVRQAPGKGLEWVARIYPTNGYTRYADSVKGRFTISADTSKNTAYLQMNSLRAEDTAVYYCATYGYGYYYFDYWGQGTLVTVSS
VL: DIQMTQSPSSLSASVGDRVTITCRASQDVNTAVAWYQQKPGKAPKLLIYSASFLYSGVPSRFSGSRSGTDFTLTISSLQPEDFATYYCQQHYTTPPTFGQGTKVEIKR
For the molecule B28, the Kd worked out at 15.5 nM and the “log(KD (M))” value was -7.81.

B29: Trastuzumab HCDR3 variant ARYPSVVYAFGI (Fab, V domains shown)
VH: EVQLVESGGGLVQPGGSLRLSCAASGFNIKDTYIHWVRQAPGKGLEWVARIYPTNGYTRYADSVKGRFTISADTSKNTAYLQMNSLRAEDTAVYYCARYPSVVYAFGIWGQGTLVTVSS
VL: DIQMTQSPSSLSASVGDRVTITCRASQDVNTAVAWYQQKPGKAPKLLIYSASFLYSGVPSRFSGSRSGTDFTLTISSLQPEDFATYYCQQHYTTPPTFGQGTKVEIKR
As to B29, the Kd worked out at 22.3 nM and the “log(KD (M))” value is -7.65.
